This is an account of results in US20230309566A1.

For this assay, the target named is Sf9 cells expressing receptor A or receptor B. Description: cell-based or functional assay.

Ends that are not written are not given here.

B1: QPPVPRY-NH2 (SEQ ID NO: 4) (peptide)
peptide: QPPVPRY-NH2
Take B1: the EC50 of calcium fluorescence (FLIPR Calcium 6) in Sf9 cells expressing receptor A or receptor B came out at 12.7 nM.

B2: QPPLPRY-NH2 (SEQ ID NO: 3) (peptide)
peptide: QPPLPRY-NH2
B2: the EC50 of calcium fluorescence (FLIPR Calcium 6) in Sf9 cells expressing receptor A or receptor B was determined as 1.4 nM.
